The values that follow come from patent publication US20210221863A1 (Innovent, published 2021).

Where two headings read alike, the source gives them in different places.

The target in assay [1] is T1, IL-2Rα (CD25) on primary human CD8^+ CD25^+ T cells (human, UniProt P01589 22-272).
T1 sequence (looked up): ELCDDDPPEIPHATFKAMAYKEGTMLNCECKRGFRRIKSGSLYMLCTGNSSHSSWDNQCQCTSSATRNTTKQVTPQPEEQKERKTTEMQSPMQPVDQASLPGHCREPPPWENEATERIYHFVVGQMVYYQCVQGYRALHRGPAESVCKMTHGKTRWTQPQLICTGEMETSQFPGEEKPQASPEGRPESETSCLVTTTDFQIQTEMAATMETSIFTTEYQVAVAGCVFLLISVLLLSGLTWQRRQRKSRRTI
Nature of the assay: cell-based or functional assay.

Assay [2] deals with T2, IL-2Rα-Biotin (Homo sapiens (Human), UniProt P01589 22-217, biotin on the avi tag (enzymatic labeling with His-BirA)).
T2 construct: also called CD25; IL-2Rα receptor
T2 sequence: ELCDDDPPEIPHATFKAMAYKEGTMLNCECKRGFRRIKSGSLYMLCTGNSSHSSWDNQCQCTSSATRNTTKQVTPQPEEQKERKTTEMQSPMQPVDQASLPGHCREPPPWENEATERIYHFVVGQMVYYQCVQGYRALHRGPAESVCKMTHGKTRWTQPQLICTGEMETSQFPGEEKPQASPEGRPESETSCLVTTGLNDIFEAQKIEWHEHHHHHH
Kind of assay: BLI (Octet Red96): biotinylated receptor on SA sensor, 100 nM Fc fusion in solution.

For assay [3], the target named is T3, IL-2Rβ IH-Biotin (Homo sapiens (Human), UniProt P14784 27-240, biotin on the avi tag (enzymatic labeling with His-BirA)).
T3 construct: also called IL-2Rβ IH (in house); CD122
T3 sequence: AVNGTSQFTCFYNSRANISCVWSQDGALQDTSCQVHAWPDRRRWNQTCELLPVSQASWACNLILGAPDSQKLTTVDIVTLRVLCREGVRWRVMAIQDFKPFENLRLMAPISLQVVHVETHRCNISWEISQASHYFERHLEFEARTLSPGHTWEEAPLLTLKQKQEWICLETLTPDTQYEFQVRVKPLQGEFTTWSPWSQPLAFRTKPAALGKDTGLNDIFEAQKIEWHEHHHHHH
Kind of assay: BLI (Octet Red96): biotinylated receptor on SA sensor, 100 nM Fc fusion in solution, 1:1 model. Here is the method: A BLI affinity assay was performed according to the prior art (Estep, P, et al., High throughput solution based measurement of antibody-antigen affinity and epitope binning. MAbs, 2013.5(2): p. 270-8). […] Kinetic analysis was performed on the assay results using a 1:1 binding model.

In assay [4] the target is T1, IL-2Rα (CD25) on primary human CD8^+ …. Kind of assay: cell-based or functional assay. The source holds these as a separate data set.
Assay [5] concerns the target T3, IL-2Rβ IH-Biotin. Kind of assay: flow cytometry: yeast-displayed IL-2 stained with IL-2Rβ IH-Biotin (30 nM-100 nM). Here is the method: (§1) 1. 1×10⁶ cells from each sample were centrifuged to discard the supernatant, and washed with FACS buffer once for later use; [0133] 2. the cells were added to 100 μL of FACS buffer containing 50 nM IL-2Rα-Biotin and Anti Flag antibody, and incubated at room temperature for 30 min; [0134] 3. the mixture was centrifuged at 3000 rpm, 4° C. for 3 min, and washed with pre-cooled FACS buffer twice; [0135] 4. 100 μL of FACS buffer containing SA-PE and goat anti-mouse conjugated with Alex Flour-647 was added, and the mixture was incubated on ice for 20 min away from light; [0136] 5. after being washed twice with pre-cooled FACS buffer, the cells were resuspended in 100 μL of buffer, and the binding level of IL-2^mutant to IL-2Rα was assayed by a flow cytometer (BD, ACCURI C6). […] 1. […] 2. the cells were added to 100 μL of FACS buffer containing IL-2Rβ IH-Biotin (30 nM-100 nM) and Anti Flag antibody, and incubated at room temperature for 30 min; [0139] 3. following steps 3-5 described above, the binding level of IL-2^mutant to IL-2Rβ was assayed.
Background: In flow cytometry, cells or beads pass a laser one at a time.

Assay [6] addresses T2, IL-2Rα-Biotin. Nature of the assay: flow cytometry: yeast-displayed IL-2 stained with 50 nM IL-2Rα-Biotin. The protocol: as §1

B1: IL-2^3X-FC fusion protein (Fc fusion, not shown: small tags and cut ends; a dimerising Fc or GST)
chain: APTSSSTKKTQLQLEHLLLDLQMILNGINNYKNPKLTDMLTFEFYMPKKATELKHLQCLERELKPLEEVLNLAQSKNFHLRPRDLISNINVIVLELKGSETTFMCEYADETATIVEFLNRWITFSQSIISTLT
By Kd is commonly meant the equilibrium constant for the complex coming apart. Read a high Kd as weaker binding. Take B1: the “EC50 (read off the curve) of p-STAT5 activation” value in assay [1] is approximately 6 nM; in assay [4] it was approximately 7 nM. Moreover, the binding result in assay [2] is on record as “no binding (tested: 100 nM)”. The molecule further came in with an equilibrium dissociation constant (Kd) in assay [3] of 16 nM.

B2: IL-2^H9 displayed on the surface of yeasts (ligand, not shown: small tags and cut ends)
chain: APTSSSTKKTQLQLEHLLLDLQMILNGINNYKNPKLTRMLTFKFYMPKKATELKHLQCLEEELKPLEEVLNLAQSKNFHFDPRDVVSNINVFVLELKGSETTFMCEYADETATIVEFLNRWITFSQSIISTLT
notes: Control on yeast cells
For the molecule B2, the binding result in assay [5] is “binds”.

B3: IL-2^3x displayed on the surface of yeasts (ligand, not shown: small tags and cut ends)
chain: APTSSSTKKTQLQLEHLLLDLQMILNGINNYKNPKLTDMLTFEFYMPKKATELKHLQCLERELKPLEEVLNLAQSKNFHLRPRDLISNINVIVLELKGSETTFMCEYADETATIVEFLNRWITFSQSIISTLT
notes: Control on yeast cells
Consider B3, for which the binding result in assay [6] is given as “no binding (tested: 50 nM)”.
